B1: CAMK2D (parent)
chain: IVRLHDSISEEGFHYLVFDLVTGG

Variants of: B1
Assay: protein stability index of a GFP-peptide fusion (GPS, HEK-293T) (PSI 1-6); higher = more stable
Settings: c terminus: a fixed tail appended
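Further: lentivirally expressed fusions sorted by FACS into six bins by GFP to DsRed ratio, PSI derived from sequencing read proportions per bin multiplied by bin number.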

Going from IVRLHDSISEEGFHYLVFDLVTGY to IVRLHDSISEEGFHYLVFDLVTGE, the protein stability index rises from 3.88 to 4.45.

Going from IVRLHDSISEEGFHYLVFDLVTGP to IVRLHDSISEEGFHYLVFDLVTGR, the protein stability index falls from 3.4 to 2.09.

Going from IVRLHDSISEEGFHYLVFDLVTGS to IVRLHDSISEEGFHYLVFDLVTGQ, the protein stability index rises from 2.88 to 2.89.

Going from IVRLHDSISEEGFHYLVFDLVTGV to IVRLHDSISEEGFHYLVFDLVTGW, the protein stability index falls from 3.44 to 2.09.

Going from IVRLHDSISEEGFHYLVFDLVTGL to IVRLHDSISEEGFHYLVFDLVTGF, the protein stability index falls from 2.13 to 1.57.

First: IVRLHDSISEEGFHYLVFDLVTGK
Second: IVRLHDSISEEGFHYLVFDLVTGM
The protein stability index of the first is lower: 2.87 for the first, 3.78 for the second.
